The results in this text go back to publication doi:10.1101/2023.02.21.529347v1.

Holding throughout (test): purified protein
Substrate in data set [1]: CC1=CCCC1=O
The following applies: co-substrate F420H2; apparent value.

Substrate in data set [2]: C=C(C)[C@H]1CC=C(C)C(=O)C1
The following applies: co-substrate F420H2; apparent value.

Substrate in data set [3]: C=C(C)[C@@H]1CC=C(C)C(=O)C1
The following applies: co-substrate F420H2; apparent value.

Substrate in data set [4]: CC1(C)[C@H]2CC=C(C=O)[C@@H]1C2
Particulars: co-substrate F420H2; apparent value.

Substrate in data set [5]: CC1=CC(=O)CCC1
Particulars: co-substrate F420H2, apparent value.

Substrate in data set [6]: CC1=CC(=O)CC(C)(C)C1=O
The following applies: co-substrate F420H2; apparent value; fit with substrate inhibition.

Substrate in data set [7]: CC1=CC(=O)CC1
Particulars: co-substrate F420H2; apparent value.

Substrate in data set [8]: CC1=CCCCC1=O
Particulars: co-substrate F420H2; apparent value.

B1: MSMEG_2027 (Mycolicibacterium smegmatis MC2 155) (protein)
chain: MTDAELSPTDWVREQTERILEQGTTDGVHVLDRPIVLFTTTGAKSGKKRYVPLMRVEENGKYAMVASKGGDPKHPSWYFNVKANPTVSVQDGDKVLPDRTARELEGEEREHWWKLAVEAYPPYAEYQTKTDRLIPVFIVE
In general, Km refers to the concentration of substrate that gives half-maximal velocity. For orientation: kcat means the maximal rate divided by the concentration of active sites. In the case of B1, the Km was determined as 1000 ± 130 µM in the data set “purified protein [1]”; 1300 ± 280 µM in the data set “purified protein [2]”; 1290 ± 320 µM in the data set “purified protein [3]”; 310 ± 30 µM in the data set “purified protein [4]”; 4290 ± 3460 µM in “purified protein [5]”; 3880 ± 680 µM in the data set “purified protein [6]”. Moreover, the Michaelis-Menten constant (Km) in the data set “purified protein [7]” was 120 ± 50 µM; in the data set “purified protein [8]”, 2560 ± 480 µM. Besides, the kcat in the data set “purified protein [1]” is 0.55 ± 0.02 s⁻¹; in the data set “purified protein [2]” it was 0.09 ± 0.006 s⁻¹; in “purified protein [3]”, 0.11 ± 0.008 s⁻¹; in the data set “purified protein [4]” it was 0.74 ± 0.017 s⁻¹; in “purified protein [5]” it was 1.10 ± 0.41 s⁻¹; in the data set “purified protein [6]”, 0.39 ± 0.05 s⁻¹. For the same protein, the kcat is 0.01 ± 0.001 s⁻¹ in “purified protein [7]” and 0.62 ± 0.05 s⁻¹ in “purified protein [8]”.

B2: MSMEG_2850 (Mycolicibacterium smegmatis MC2 155) (protein)
chain: MTEAIDWDQMNNQVIKEFRETGGKAGGLFEGSPLVLVHHTGAKSGKQRIAPLVPLLDGDRIYIFGSKGGADSHPDWYHNLVANPDTVVELGTETFPVKARVLTGAERDEIYAKQVAVAPQFGDYQRKTTRVIPVVELQRV
Regarding B2, the Km worked out at 7670 ± 3210 µM in “purified protein [1]”; 2070 ± 390 µM in the data set “purified protein [2]”; 1620 ± 180 µM in “purified protein [3]”; 580 ± 70 µM in “purified protein [4]”; 6730 ± 6840 µM in “purified protein [5]” (fit with substrate inhibition); 100 ± 8 µM in the data set “purified protein [6]”. In addition, the Michaelis constant (Km) was 4300 ± 740 µM in the data set “purified protein [7]” and 9180 ± 2220 µM in the data set “purified protein [8]”. The kcat in the data set “purified protein [1]” came out at 0.16 ± 0.04 s⁻¹; in “purified protein [2]”, 0.05 ± 0.004 s⁻¹; in the data set “purified protein [3]” it was 0.08 ± 0.003 s⁻¹; in “purified protein [4]”, 0.16 ± 0.005 s⁻¹; in “purified protein [5]” (fit with substrate inhibition) it was 4.02 ± 3.30 s⁻¹; in “purified protein [6]”, 1.35 ± 0.028 s⁻¹. Besides, the kcat came to 0.10 ± 0.008 s⁻¹ in the data set “purified protein [7]” and 1.59 ± 0.23 s⁻¹ in “purified protein [8]”.
